Measurements: paper PMC10901741, “Autonomous transposons tune their sequences to ensure somatic suppression”

T1: Halo-TRA2B RRM (UniProt P62995 111-201)
T1 sequence: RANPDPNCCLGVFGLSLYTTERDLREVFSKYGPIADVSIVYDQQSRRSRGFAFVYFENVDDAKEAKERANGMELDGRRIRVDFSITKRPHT


Experiments:
Conditions in all cases: protein: recombinant; tags: Halo (N-terminal 10xHis-TEV removed), OregonGreen on Halo; label: 3' CF 647 hydrazide (periodate-oxidized end); single-stranded
Halo-TRA2B RRM [1] = target: T1, Halo-TRA2B RRM; experiment: EMSA; protein 3.6-102.4 uM; lost all interactions; EMSA: 25 mM Tris-Cl pH 7.4, 50 mM KCl, 5% glycerol, 1 mM DTT, ~100 nM RNA, 30 min on ice, 8% native PAGE 0.5x TBE; pull-down: 25 mM Tris-Cl pH 7.4, ~75 mM KCl
Halo-SAFB1 RRM [2] = target: T2, Halo-SAFB1 RRM (UniProt Q15424 386-485); experiment: EMSA; protein 3.6-102.4 uM; barely affected by m6A; EMSA: 25 mM Tris-Cl pH 7.4, 50 mM KCl, 5% glycerol, 1 mM DTT, ~100 nM RNA, 30 min on ice, 8% native PAGE 0.5x TBE; pull-down: 25 mM Tris-Cl pH 7.4, ~75 mM KCl
Halo-SAFB1 RRM [3] = target: T2, Halo-SAFB1 RRM; experiment: EMSA; protein 3.6-102.4 uM; lower affinity than TRA2B RRM; EMSA: 25 mM Tris-Cl pH 7.4, 50 mM KCl, 5% glycerol, 1 mM DTT, ~100 nM RNA, 30 min on ice, 8% native PAGE 0.5x TBE; pull-down: 25 mM Tris-Cl pH 7.4, ~75 mM KCl
Halo-TRA2B RRM [4] = target: T1, Halo-TRA2B RRM; experiment: EMSA; protein 3.6-102.4 uM; clearly higher affinity than SAFB1 RRM; EMSA: 25 mM Tris-Cl pH 7.4, 50 mM KCl, 5% glycerol, 1 mM DTT, ~100 nM RNA, 30 min on ice, 8% native PAGE 0.5x TBE; pull-down: 25 mM Tris-Cl pH 7.4, ~75 mM KCl

T2 sequence (Q15424 386-485): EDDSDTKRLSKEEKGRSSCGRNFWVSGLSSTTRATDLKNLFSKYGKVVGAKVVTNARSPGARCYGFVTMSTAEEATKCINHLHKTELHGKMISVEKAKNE

Binder | binding result (Halo-TRA2B RRM [1]) | binding result (Halo-SAFB1 RRM [2]) | binding result (Halo-SAFB1 RRM [3]) | binding result (Halo-TRA2B RRM [4])
GGGAAGAAGAAGAAGAAGAAGAAGAU (ssRNA, all A are N6-methyladenosine) [(m6AGm6A)x7 RNA, methylated] | no binding | binds |  | 
GGGAAGAAGAAGAAGAAGAAGAAGAU (ssRNA) [(AGA)x7 RNA, unmethylated] |  |  | binds | binds
